{"source": "paper PMC11098746", "about": "(2024)", "binders": {"B1": {"name": "50 (protein)", "chain": "ANAFYVDNGQEMLIKEKEHYSSDSEHHKEESASIGNLNVFFPAENYHFSTYMGFDRRSFLPSNEIELEKMIGANFANEVKNYCSRQNVAQKIGDYLNIAFEYSRALEELRSEMILDFNKRKHLTNNADDTILHMIENAEKRKNDPNYKEAYENKDYANNANIFMNEYSNPLSTKYNKILKEYLCHLFVNNPGTKPLERLYYNSLALGELVEPIRNKFKSLASSTIDFNYEIHMASASNIYLLAHFLVLSLAYLSYNEYFTTGTKSFYSLPTILTANSDNSFFMLNEMCNIHYNPNKNFKKDITFIPIESRPKRTTTFYGERRLTCDLLELVLNAIMLININEINNVFSNNNVDGYENSLSFSHNAIRIFSKVCPKINNDNVLKCEFEESSLYNPKIIKNDASEKSSQKNLKKAFDLLRTYAEIEGHSAEGSTSPYYVSLILDDMKYNDFYKYTLWYEPRELIYGDIRGMQMKKKKKTKYIYNDFMKKSTQLKKKLIKNDLKYNLKSKGLVFLYAMIDKYGSILNKAQKAKVQFLNSASSIRYYLYLNKVIFKSAKTYLDIMKRVLEELQTSTNTPLKFLVRGNYIENINNIARNDNMFYANLFVLTALSRRDPVKDYYNDKRKMLSATLAEKFANSASMLIPHKLRKLVVSMKKGLLKKKLLTSLAKVKLLQHIPAHMLENIASSIRFTTHTIATMQIIQNAKYMSKHNFAQYDSKGMLARQIFTKGGFAEYADNLMAKWFSKGFEEYKREQIENFKMENSIDSELKDSEREDENDASEESAKKKLQDLQLEEREKMKKENSLLFNQADKWDQFINKELVRALGLWLEFNDNPANAASFVYKVVEDSKHLLENNIDNNIIFSRTVKPTKQTAFRRFFNKILSLGNMLLRKPSFRVEHALWFGATIDIKKAFILLEKVSELHKMLNNQDESWLINEAFIEIVDHVVDLSTYKHVREPFGVARNPGMMAINPKYAELSHENRLRELQNSMCADHCSSVWKVISSFALHHLKNPDSLHTYESKFSKNSFGNKIDDKDFVHNFKMILGGDAVLHYFDNLLPKTMKKDLKAMKYGVSLTSAYSLKLTKIIFSQMQLPYLSQMFYMQAPYFGHFIGKWQKKRQQSRLKEIMSFMTLGSLSAYTLFSAMDITQQAKDIGAGPVASCFTTRMSPPQQICLNSVVNAALSTSTQSAMKCVFSV", "modifications": "bait human Fc-tagged dimer"}, "B2": {"name": "72 (protein)", "chain": "SNHIKSVNRCFIPFISEYIYKQKNRKNNIAYDSSNSHYNDKIIPCGNYNKQLKYKINFCRNLYFNNKNEYNRICSRNKLNFHNIQTDNTIYKPKKKYYEVGKVREKIKMYTLFKDDKINTLKCNEEESVTSETINKHDSSVKVKGRRKKNIASNENIMNPNNKAVSSINTNLADSSNNKNDNSLNSKKNDNTLNSKKNDNTLNSKKNDNTLNSKNNNNALNSKNNNNALNSKKSNNAYNDKHIDHIIPEGKNKINNNIDVKHNINNKLNEINEEPYEDTHNKEENSANKNDNDEKRKEENNNIARRYIKNDQMSYNNINTNSNEYDKNAATLDETYIGKTFEGYVYSVNKNAACIKLKNINKYGLLFKNKANLGDDIEDMNDFFEKDQPVHVKILGINTKKNIFYLGNIIKYNENIKLSKGEYSKGLITKVCDSYCFIKVLKNGATGYLHKSKLFCMNDKEKKNNDNQNYDNPNNDNPNYDNQNYDNQNYNNPNYDHPNYDNQNYDNQNYNNPNNDYSTSQLYNSDNLQMDFIYKLQFTKIFNIWDIIDVEILGTPQNDYKSNYILTIPRGSKTFKKILNYLNVLKENEDINNIQYKGDYIYSIDNNKNDNIIDSDINNHHINNKKKKKNLYDIQNNMNHAPFNKFHTEDEYLFNDHVQENVHTFYEKNKKYKITYDKENNHKMNKAYYLKKNKELPFNNKFKKIIKNIYDLPNTISLSMLSKTIKIPLASIKKYFIIHENKEYNSAYKINSEQIKRICQHFKIDCNVEQRDDNVVTKVNGATKDCQEKVFKNVAQDRLKEGEQERVIKVEAKIKNDEMVMQEQKDTKEEKHMDVQFIEEKDINVQHINVQDMDVQDMDVQDINVQDMDVQNINVQDINIQDMDVQNINNAITLNKATSCQTDESRDAPGGDQNEALDEKDSMEKSKEKKKKKGKSRKKNKDTNLALKSDSIQKSKTTLDDKKRNVVVTFIGHINHGKTSLFDYICKTNEQKKEYGLITQNIRAFKATVRNNFAFTLVDTPGHEAFMPMRSRGVKISDLSILVISGDEGIQEQTVECIKLIKEFNIKIIIAITKVDIPNVDVDRIINDLLYHDITTELNGGEIQVVECSIYKEESIDKLLDAIYLESEFLNLQTNPDKKHEQAQGVVLDSYIDKNGIVSINLLQNGVLNINDHFYTGSSYGKVKILKDHLNKNIKSAYPSDPIKIIGYNKNSVPVAGDKFYVVENEALAKEIAEHNKNKMLTMEINNFAYDQTNMNRYKDFIISRENKIGGSSGILGENNLKNDIDGNMARDDNMARDDNMASDDNMARDGNRANNDNIASDDNMANDYDKIKETKMYTNNKAFQKDDFLKIHLNNANENVINMDPSTHIGKNEIKTIYSNYIIKCDKQGSIEVLKNCMLKLQKEDSICKIKNKIIYADIGNVASSDIKYATSFNAAIIAFGVKLSNDIKGSKNSKGSKNHNNYPIIYSNVLYELIENVEKEMEKKLSKKPMGELKGTAQILKVFNIAKLGKVAGCIVKKGTISINSNIRILRNDKVIYMGKIISIKIVKEEKTQVTEADECGIGFDNFLDFEPNDIIEAYEN", "modifications": "bait human Fc-tagged dimer"}, "B3": {"name": "33 (protein)", "chain": "SSNDKNKINKNNMPLQRGASNLKDINIHNVEKKSNMESVNNNINNAACSKNLNANKVPNVAHTGVNKKGETKNEEVEKEENENEEIEKEEIENEENQQNEEDENEENQQNEEDENEENQQMNVNVDVSAEKKNKELPEEKKELQKNSEKNINKEVIKDSNKDNTFNFHKNINTAFNKNKNIYNNNNNNNNNNKAFIEKKEEAIDMKKTHCSNNNKMCKYNNMNNHMSTNKNNNQIFEESKQNVNKPIYNLKSLGNNAFKNDEKYNENDYKNNHDDDKKKYTDDSNEENIYEERNQKILLIHLLKNIKELLNRQRQNFNNFLSFLSENYQSYEKFYKSQKYQNGKNYIDKLDQQGELKNVAVVTHSFLDMSKAANGKKDKNGVFVKLMNDQNDDGDDTKDGDDTKDEDDHKNEDDHKNEDDHKNEDDHKNEDDHKNGDDNKNGDDHKNGDDNKNGDDDNGKKSHDISDIKNIIDTILQSDDITDEQKKYLEIIKKILDLEEDVLNKEKEQLQLNKNIIEVLMGKSDELRNIAVNLKNGNGDNEASQRVDLAQNIVSNLLNFAVQLKNTGNIVYNNIQGQGELLQSIEKNIDKAENDLKKSTSVNTAFTPKNVPNTEQNDQETQTDDDINDADIDENNNANDKNNCHMYKKNNCHMYKKNNCKKYFLNSHYNNYLCKKQKKYNKNDMGNKQKDNKKFKLNEAMKNHFYNIFVKETVMLKKLYKVLFELF", "modifications": "bait human Fc-tagged dimer"}, "B4": {"name": "75 (protein)", "chain": "NVVAPKSAEAVHTLTAKLDTENKAHQKYIDIINGVFSENMENFVFSITTSNGFTCSINKLDVIFDNKVTGMQKVFSDENVQYIKEASLEFKNNLLEYMKGVMPSENDFSNVRKEFQKVCVKYFSELRRKFFQIYRDPNNKNQNEDNVDNHMNIEEISQEFFSGFNPFGTMKIRKEQNPDLSQKDSLILNENNNDALTSADQKNNNMVPMENRAFSYSQQSSHVVSFDGHDEHVEQQEQHSGDNTQEDKDQLMDLPFNKDKVFSTFLKNVALLIEGNCAEAQQQAQEQTQEQTEEQEEEQNEKEIESDKQVQKDGEQKENDVQKKQKANAFTIQFSSSLSRKHISTTCNAASGNVFLRKGNKPFEHFNSPNFENMMKGVFGIIQNPFENGQPTFPFFKNINSISGIGNVDIPKNFMNDFLNNGNDQNTPISS", "modifications": "bait human Fc-tagged dimer"}}, "data": [{"target": "FGFR4 ectodomain (Homo sapiens, UniProt P22455)", "assay": "AVEXIS normalised luminescence", "values": [{"binder": "B1", "binding score": 1.17}, {"binder": "B2", "binding score": 1.02}, {"binder": "B3", "binding score": 1.23}, {"binder": "B4", "binding score": 1.05}]}]}
